# According to publication doi:10.1101/2021.02.24.432656 (bioRxiv, 2021):
# T1: bacterially purified STAT1 recombinant protein (human, UniProt P42224 1-750)
# T1 sequence: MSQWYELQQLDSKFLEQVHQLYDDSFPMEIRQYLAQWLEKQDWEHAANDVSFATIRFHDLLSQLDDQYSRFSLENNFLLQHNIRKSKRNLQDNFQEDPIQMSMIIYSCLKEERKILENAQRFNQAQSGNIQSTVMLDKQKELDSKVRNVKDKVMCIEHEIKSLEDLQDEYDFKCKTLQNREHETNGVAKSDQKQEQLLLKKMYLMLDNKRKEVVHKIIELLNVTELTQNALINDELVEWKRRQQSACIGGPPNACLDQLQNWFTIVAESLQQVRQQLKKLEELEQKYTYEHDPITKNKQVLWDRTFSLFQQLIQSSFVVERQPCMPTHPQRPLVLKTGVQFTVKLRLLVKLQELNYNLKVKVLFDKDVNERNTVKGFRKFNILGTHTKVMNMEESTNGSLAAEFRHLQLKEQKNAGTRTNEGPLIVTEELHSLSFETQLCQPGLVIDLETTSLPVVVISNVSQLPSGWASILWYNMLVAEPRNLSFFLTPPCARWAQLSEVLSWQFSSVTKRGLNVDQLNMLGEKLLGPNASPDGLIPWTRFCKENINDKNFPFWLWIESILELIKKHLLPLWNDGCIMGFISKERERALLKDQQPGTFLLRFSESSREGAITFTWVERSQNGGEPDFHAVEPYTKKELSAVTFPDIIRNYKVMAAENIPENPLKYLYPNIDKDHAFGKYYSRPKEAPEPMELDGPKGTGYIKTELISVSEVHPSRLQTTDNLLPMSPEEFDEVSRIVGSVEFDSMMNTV
# Molecular target: T1, bacterially purified STAT1 recombinant …
# Assay: pull-down
binder,measurement,value
YSQLDEEQPMEID (domain or fragment) [GST-GFP fused with the C-terminal peptide of ORF6 wild type (49-61 amino acids)],binding result,binds
